Results published in the domain aggregation screens of Martell et al. (2025).

Test: soluble fraction after stress (log2 fold change); higher = more stays soluble; pooled small domains, quantitative proteomics
Conditions: stress: 50 degC
Summary of the method: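 Pooled custom libraries of small protein domains were each held under stress at 50°C. The read-out, high-throughput quantitative proteomics, tracked how much of each protein stayed soluble. This is reported as a base-two log fold change used to indicate aggregation propensity. Higher values mean more protein remains in solution.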

| Sequence | soluble fraction (log2) |
| --- | --- |
| HMISEAEGTILQLLKEADGTLPFTYKSDADEIKKVFGMSKKNFKRTLTELIEAKKIQLLDDAIVL | -0.459 |
| HMNNLVGKTKVLKSNTNIYAYKTMSGKFYSYLPNTRVRVLQDLGYINYIEVIATKRRGYVYENVY | -0.0937 |
| HMQMEISQRIKLERQTLKWTQEELADKIFVSKRTISNWETGRTVPDIESVLRLAKVFHVSLEDLLL | -4.57 |
| HMINAQETEIYRFLIEKANRLYSMVLGLKREELMTATRQFEEEVKHSSIHHLPKIYQAFSSYLELLERG | -0.478 |
| HMEAEVIKTASDMADRNGLHNVSLKAIAENLGIRTPSLYNHIGSLDELLREIAHSGMRTMNE | 0.02 |
| HMGSIMIIVLKENAPQQAAEKLMKEIRAKGLQIDVSKGTRKTVLGLVGDTSVIDMEHVQGYDYVDKVLRV | 0.0715 |
| HMAIKNKNEQLEAIIKFADLRGEFKTADIEELLSIKSSRARLLISELVKIGKLESIGSNRNRRYHIK | -0.52 |
| HMVKKYEKVKEYLLERILDGTYVPDLPIPPERELASLLDVNRMTVRRAVEELMYDGYLIRKKGSGTYLTR | -1.57 |
| HMAQPIPSGADIRAAREAAGMTLRRFAEYIAGPDFSTWSRYETGKPIRVKNISPEVWQRVRKFIAQNKG | -0.0609 |
| HMPSEQGANKARDIIFRHHMKVDVWVGSWENARNYAEQAIKQGVKVIISRGGTAALLRHSLDTAIIKVR | 0.0222 |
| HMDPTVTFIVQVNGRVRDKITLSSDISENEAKNVALESPKITPHISGKSLSRVIFVPGKLINLVV | -0.578 |
| HMKGWPDREQAEKIWQQGIDYAIEHHTMSPQIVKEYIFHTQGIARSAALIAARLPDMDTEKAYVLGLLHD | -0.214 |
| HMNEDFSEIIAAVKKFAVDNLSLSTLSDEELEEQIKTITDNMIGNRYVSIKNRVDIAQQVFSSIR | -0.0581 |
| HMNNQMTFSKFLNEVDAGRVVEVEIQGNNIKGVLADGNRFNTFSPNYPNLVEKLSDKGVSITAAPK | 0.0484 |
| HMGRLNMRRIRDVLRLKFGQGLSERQVAASLGLSKTSVGTYLHRARQAGLTWPLPQGLDDDGLELLLFP | -1.29 |
| HMTLKVQLSEISKMVSLSYIAKKYFNKSQSWLSQRINGNTIHNKPAKFTSEELATLQFALKDIGNILNSTV | -2.8 |
| HMGTRTILGIDPGSRKTGFGIIRLDGSRTHYVSSGVIRIPDTALPERLKIIFASLNEIIQQFQPQEV | 0.0673 |
| HMLDSNILTLIKELKIRHHFTATQTHQLEKVIQQAHALGLDNSEIRSLANSSPSAKSLINDLNQKLEPLRL | -0.398 |
| HMSEQSEALRTGLDQLPINQRTALTLFHLHELNQSEVAKIMNISVGAVESLLFRGRQKMKQLLTSD | -0.725 |

| Sequence | soluble fraction (log2) |
| --- | --- |
| HMAMNLQETVLMQLRDLILRGTFEPGQRLSEQPLAERLKASRTPVRSALVTLEQEGLIEASETGKYLVRQ | -0.421 |
| HMGQGSAFVYYEVLPKQTEYSLTRKLGLGYADLLSLNPQLARGLQAGMVLKIPRDKAGNLEVKNDLILE | -0.271 |
| HMWWTPIILRDALFGVQRFEDFQKNLDVSRATLSSRLTRLVDEGLMEKVEYQQHPVRHEYVLTEKGR | -0.108 |
| HMIAASPVGGIDRVLELLDARGQRVAWIEASGTEGGQRLRLGWIDAQGAERHGAWVPWSADDLLLYA | -0.387 |
| HMAQLTPREREVLVLIAEGKSNKEIADQLNIGVRTIETHRERIMRRLNIHSVAGLTKYAIANGLVTL | 0.116 |
| HMSVEYRKTLSDGNEYQIVKEKNGYVIKKSLNEGLDYLEPMKNRKYYSSYSQAFKRLNLIAKEVNINEGYD | -0.138 |
| HMELPADLATVLSVDDIRAIALAEVPGSTITGVELEREEGVLVYKVKFNDGSYKLYDANTGELV | 0.174 |
| HMFERISELLTDEELAVYKRGRNANASSVPKHADIADYRRATGVEALFGYLYIKGEIDRINQLFELA | -0.23 |
| HMNNIIEQIKADIKKLEEKLDKSSENALNKLEKDYSSLSTESKKKLDDAGYGARIKALRVKFAALSTQ | 0.0666 |
| HMIGGASVFKQFLPLADKMLLTLIHSEFEGDTYFPVFSEKEWLLQESSSLLSATGYQLSFQTYIR | 0.0328 |
| HMPLVIIRGIEGVFSSEEKAEAIRKVTDALVSVKGENVRGFAWVVFEEVKSGDWGIGGESITAEKVIMSL | -0.0828 |
| HMSSRNLIIFYDSPQAENALLATAERYGAILLHHYRNLHGIAVAIPADKDMAQAVTYFSRQPGVRQV | -0.803 |
| HMETSLVIQIDGAVNSPGIYQVTPGTRIFEALELAGGVREDAQTEALNLALPVYDGQRISIPSSFA | 0.0796 |
| HMFESQYIGKIATAITDISAFSGRLKIYDENWEARTLGEDAPEIKKGAKVKIVRHDDLTMFVEKK | -0.034 |
| HMGSLRSALDGIPGIGEQYQKRLLAQFGSVKAMRSASVEDFEAVRGIGRAKAQALYDALHAG | -0.131 |
| HMEQINVTIQTEKGRIDKVLSEHLPNHSRSQIQQWLKEKHVTVNGETVRANYKVTAGDEIVVTIPEPEV | 0.206 |
| HMRNNKLRRANKLKTEFENLPHIGKKRAHVLLKAFGSTENLKMTTAQALSEAAKISLKQAEEVLEAVRG | -0.0475 |
| HMKISDMIETNLKFLRGKHSISQAELAESLGIPRTTLSAYERGFVEPNIELMLKMAKYFNVSLDDLIAYN | -1.88 |
| HMAGSTAASKHALALLNTARHSIRDGNLTSAAAEIKQALATSQEQIVITEARSLMTAMEARATTRRATVLQ | -0.168 |
